What was measured:
[1] = target: K63-linked diubiquitin (UniProt P0CG48); assay: ITC; MicroCal iTC200; proteins dialysed in 20 mM Hepes pH 7.5, 150 mM NaCl, 200 μM TCEP; 2-μl injections; who was in the cell is not given; ranges of Kd are from fits with N fixed to 1 (first value: active concentration in the cell varied, second: in the syringe); Kd of S470R and E467R/S470R called apparent
[2] = target: K63-linked tetraubiquitin (UniProt P0CG48); assay: as above

Kd [1]: 8.7 to 10.4 µM
stoichiometry N (ASCC2 CUE domain per K63Ub2) [1]: 1
stoichiometry N (ASCC2 CUE domains per K63Ub4) [2]: 2
Substance: ASCC2 CUE domain (construct of the ITC experiments of Figure 2) (from UniProt Q9H1I8 463-525) (domain or fragment)

Reference: article PMC8800115
